The record followed here is PMC6284238.

Substrate in the data set: NC(=O)c1ccc[n+]([C@@H]2O[C@H](COP(=O)([O-])OP(=O)(O)OC[C@H]3O[C@@H](n4cnc5c(N)ncnc54)[C@H](O)[C@@H]3O)[C@@H](O)[C@H]2O)c1
The experiment in a line: Michaelis-Menten kinetics of NAD+ cleavage by purified SARM1-TIR, HPLC. The format is biochemical, Homo sapiens. The settings on record: E642 is a putative key catalytic residue within the active site.

B1: SARM1-TIR (Homo sapiens) (protein)
chain: DTPDVFISYRRNSGSQLASLLKVHLQLHGFSVFIDVEKLEAGKFEDKLIQSVMGARNFVLVLSPGALDKCMQDHDCKDWVHKEIVTALSCGKNIVPIIDGFEWPEPQVLPEDMQAVLTFNGIKWSHEYQEATIEKIIRFLQGRS
As usually defined, the Km is the concentration of substrate that gives half-maximal velocity. In the case of B1, the Km stood at 24 µM.
